Data as given in patent US20060173159A1, “Water-soluble thioester and selenoester compounds and methods for making and using the same” (priority 2002, published 2006).
No end group written: not given here. *: point of attachment. thioester = C-terminal thioester, without the water-soluble polymer; Acm = CC(=O)NC*

Assay: Dissolution of deprotected and cleaved crude peptide-thioester in 50% aqueous acetonitrile containing 0.08% TFA
Format: physicochemical
Details: 50% aqueous acetonitrile containing 0.08% trifluoroacetic acid (TFA)

Substance	dissolution of deprotected and cleaved peptide-thioester
GRFN 1852-PLP3-Leu: SEQ ID NO:4 peptide, C-terminal L-thioester joined to water-soluble polyamide polymer PLP3-Leu (C(Acm)LSQLHSGLFLYQGLLQALEGISPELGPTLDTLQLDVADFATTIWQQMEEL; not fully specified (C-terminus); also: C-terminal thioester joined to PLP3-Leu polyamide polymer)	completely dissolved
GRFN 1852: SEQ ID NO:3 peptide L-thioester, non-polymer modified; comparator (C(Acm)LSQLHSGLFLYQGLLQALEGISPELGPTLDTLQLDVADFATTIWQQMEEL-thioester)	poorly soluble
